Results taken from patent US20230272055A1 (Incyte, published 2023).

Legend:
[1] = target: T1, Recombinant MBP-mutCALR Type 1 fusion protein (human); test: SPR, IgG captured, 1:1 fit, Exp. 2
T1 construct: custom made at Cepter; also called recombinant mutCALR protein
How it was run: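 Antibodies captured via amine-coupled anti-human IgG (Fc) on a CM4 chip; recombinant MBP-mutCALR Type 1 fusion protein as analyte. Run at 25 °C in Tris-buffered saline pH 7.2, 0.005% P20, 1 mM CaCl₂. Multiple-cycle kinetics fitted to a 1:1 binding model.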

[2] = target: T1, Recombinant MBP-mutCALR Type 1 fusion …; test: SPR, IgG captured, 1:1 fit, Exp. 1
Protocol: Experiment 1: Recombinant MBP-mutCALR Type 1 fusion protein was custom made at Cepter (cepterbiopartners.com). Data for the interaction of antibodies with recombinant MBP-mutCALR Type 1 fusion protein were collected at 25° C. on a Biacore 8K instrument (Cytiva, Marlborough, Mass.), and all reagents were obtained from Cytiva unless otherwise specified. The experiments were conducted using Tris-buffered saline (pH 7.2), 0.005% Surfactant P20, 1 mM CaCl₂) as running buffer. To prepare the capture surfaces, anti-human IgG (Fc) antibodies (Product #29234600) was amine-coupled onto a CM4 chip (Product #BR100534) under standard conditions using an Amine Coupling Kit (Product #BR100050). […] The kinetics parameters were obtained by applying 1:1 binding model to fit the data from multiple-cycle injection experiments using Biacore Insight Evaluation software.

B1: anti-mutCALR antibody clone 40 (antibody, human IgG1, lambda, V domains shown)
VH: EVQLVQSGAEVKKPGASVKVSCKVSGYTLTESSMHWVRQAPGKGLEWMGLVDPEDGETIYAQKFQGRVTMTEDTSTDTAYMELSSLRSEDTAVYYCAREEWSGDGDDAFDIWGQGTMVTVSS
VL: QSVLTQPPSVSAAPGQKVTISCSGSSSNIGSYSVSWYQQLPGTAPKLLIYDNNKRPSGIPDRFSGSNSGTSATLGITGLQTGDEADYYCGTWDSSLSAWVFGGGTKLTVLG
notes: human IgG1
Kd [1]: 0.352 nM | koff [1]: 0.00121 s⁻¹ | kon [1]: 3.44e+06 M⁻¹ s⁻¹ | Kd [2]: 1.04 nM | koff [2]: 0.00538 s⁻¹ | kon [2]: 5.17e+06 M⁻¹ s⁻¹

B2: anti-mutCALR antibody clone 15 (antibody, human IgG1, lambda)
heavy: not shown
light: SYELTQPPSVSVAPGKTARITCGGDNIGSKSVHWYQQKPGQAPVLVVYDDSDRPSGIPERFSGSNSGNTATLTINRVEAGDEADYYCQVWDSSNDLLIFGGGTKLTVLGQPKAAPSVTLFPPSSEELQANKATLVCLISDFYPGAVTVAWKADSSPVKAGVETTTPSKQSNNKYAASSYLSLTPEQWKSHRSYSCQVTHEGSTVEKTVAPTECS
notes: human IgG1
Kd [1]: 1.02 nM | koff [1]: 0.00249 s⁻¹ | kon [1]: 2.44e+06 M⁻¹ s⁻¹ | Kd [2]: 6.03 nM | koff [2]: 0.215 s⁻¹ | kon [2]: 3.57e+07 M⁻¹ s⁻¹

B3: anti-mutCALR antibody clone 17 (antibody, human IgG1, lambda)
heavy: not shown
light: SYVLTQPPSVSVAPGQTARITCGGSDIGDEIVHWYQQKPGQAPVLVVYDDSDRPSGIPERFSGSNSGNTATLTISRAQAGDEADYYCQVWDSSSDHLIFGGGTKLTVLGQPKAAPSVTLFPPSSEELQANKATLVCLISDFYPGAVTVAWKADSSPVKAGVETTTPSKQSNNKYAASSYLSLTPEQWKSHRSYSCQVTHEGSTVEKTVAPTECS
notes: human IgG1
Kd [1]: 0.249 nM | koff [1]: 0.00127 s⁻¹ | kon [1]: 5.12e+06 M⁻¹ s⁻¹ | Kd [2]: 2.22 nM | koff [2]: 0.00347 s⁻¹ | kon [2]: 1.56e+06 M⁻¹ s⁻¹

B4: anti-mutCALR antibody clone 48 (antibody, human IgG1, lambda, V domains shown)
VH: EVQLVQSGAEVKKPGSSVKVSCKASGGTFSSYAISWVRQAPGQGLEWMGGIIPIFGTANYAQKFQGRVTITADESTSTAYMELSSLRSEDTAVYYCASSPLRGSGWYWHYYYGMDVWGQGTTVTVSS
VL: SYVLTQPPSVSVAPGKTARITCGGNNIGSKSVHWYQQKPGQAPVLVIYQDRKRPSGIPERFSGSNSGNTATLTISGTQAMDEADYYCQAWDSSTAVFGGGTKLTVLG
notes: human IgG1
Kd [2]: 1.64 nM | koff [2]: 0.000297 s⁻¹ | kon [2]: 181000 M⁻¹ s⁻¹

B5: anti-mutCALR antibody clone 44 (antibody, human IgG1, lambda, V domains shown)
VH: EVQLVQSGAEVKKPGSSVKVSCKASGGTFSSYAISWVRQAPGQGLEWMGGIIPIFGTANYAQKFQGRVTITADESTSTAYMELSSLRSEDTAVYYCASSPLRGSGWYWHYYYGMDVWGQGTTVTVSS
VL: SYVLTQPPSVSAAPGKTARISCGGNNIRSKSVHWYQQKAGQAPVLVIYQDSKRPSGIPERFSGSNSGNTATLTISGTQAMDEADYYCQAWDSNTVVFGGGTKLTVLG
notes: human IgG1
Kd [2]: 3.84 nM | koff [2]: 0.00101 s⁻¹ | kon [2]: 263000 M⁻¹ s⁻¹

B6: anti-mutCALR antibody clone 45 (antibody, human IgG1, lambda, V domains shown)
VH: EVQLVQSGAEVKKPGSSVKVSCKASGGTFSSYAISWVRQAPGQGLEWMGGIIPIFGTANYAQKFQGRVTITADESTSTAYMELSSLRSEDTAVYYCASSPLRGSGWYWHYYYGMDVWGQGTTVTVSS
VL: SYVLTQPLSVSVAPGQTARITCGGNNIGRKSVHWYQQKPGQAPVLVIYRDSNRPSGIPERFSGSNSGNTATLTISRAQAGDEADYYCQVWDSSTVVFGGGTKLTVLG
notes: human IgG1
Kd [2]: 5.13 nM | koff [2]: 0.0011 s⁻¹ | kon [2]: 214000 M⁻¹ s⁻¹

B7: anti-mutCALR antibody clone 47 (antibody, human IgG1, lambda, V domains shown)
VH: EVQLVQSGAEVKKPGSSVKVSCKASGGTFSSYAISWVRQAPGQGLEWMGGIIPIFGTANYAQKFQGRVTITADESTSTAYMELSSLRSEDTAVYYCASSPLRGSGWYWHYYYGMDVWGQGTTVTVSS
VL: SYELTQPPSVSVAPGKTARITCGGNKIGTKSVHWYQQKPGQAPVLVIYRDSNRPSGIPERFSGSNSGNTATLTISRAQAGDEADYYCQVWDSSTVVFGGGTKLTVLG
notes: human IgG1
Kd [2]: 3.62 nM | koff [2]: 0.000772 s⁻¹ | kon [2]: 213000 M⁻¹ s⁻¹

B8: anti-mutCALR antibody clone 51 (antibody, human IgG1, lambda, V domains shown)
VH: EVQLVQSGAEVKKPGSSVKVSCKASGGTFSSYAISWVRQAPGQGLEWMGGIIPIFGTANYAQKFQGRVTITADESTSTAYMELSSLRSEDTAVYYCASSPLRGSGWYWHYYYGMDVWGQGTTVTVSS
VL: SYELTQPPSVSVAPGKTARITCGGNKIGTKSVHWYQQKPGQAPVLVIYQDSKRPSGIPERFSGSNSGNTATLTISGTQAMDEADYYCQAWGSSTVVFGGGTKLTVLG
notes: human IgG1
Kd [1]: 0.823 nM | koff [1]: 0.000524 s⁻¹ | kon [1]: 636000 M⁻¹ s⁻¹ | Kd [2]: 4.64 nM | koff [2]: 0.00109 s⁻¹ | kon [2]: 235000 M⁻¹ s⁻¹

B9: anti-mutCALR antibody clone 49 (antibody, human IgG1, lambda, V domains shown)
VH: EVQLVQSGAEVKKPGSSVKVSCKASGGTFSSYAISWVRQAPGQGLEWMGGIIPIFGTANYAQKFQGRVTITADESTSTAYMELSSLRSEDTAVYYCASSPLRGSGWYWHYYYGMDVWGQGTTVTVSS
VL: SYELTQPPSVSVAPGKTARITCGGNNIRAKHVHWYQQKPGQSPVLVIYQDSKRPSGIPERFSGSNSGSTATLTISRVEAGDEADYYCQVWDSSTVVFGGGTKLTVLG
notes: human IgG1
Kd [2]: 3.61 nM | koff [2]: 0.000669 s⁻¹ | kon [2]: 185000 M⁻¹ s⁻¹

B10: anti-mutCALR antibody clone 37 (antibody, human IgG1, lambda, V domains shown)
VH: QVQLVQSGAEVKKPGATVKISCKVSGYSFTDYFIHWVQQAPGKGLAWVGLVDPEDGETIYAEKFQGRVTITADTSTDTAYMELSSLRSEDTAVYYCATPGGILTDPDAFDIWGQGTMVTVSS
VL: QSALTQPASVSGSPGQSITISCTGTSSDVGGYNYVSWYQQHPGKAPKLMIYDVSNRPSGVSNRFSGSKSGNTASLTISGLQAEDEADYYCSSYTSSSTFYVFGTGTKVTVLG
notes: human IgG1
Kd [2]: 9.88 nM | koff [2]: 0.00212 s⁻¹ | kon [2]: 215000 M⁻¹ s⁻¹

B11: anti-mutCALR antibody clone 32 (antibody, human IgG1, lambda, V domains shown)
VH: QVQLVQSGAEVKKPGATVKISCKVSGYSFTDYFIHWVQQAPGKGLAWVGLVDPEDGETIYAEKFQGRVTITADTSTDTAYMELSSLRSEDTAVYYCATPGGILTDPDAFDIWGQGTMVTVSS
VL: QSALTQPASVSGSPGQSITISCTGTSSDVGGYNYVSWYQQHPGKAPKLMIYEVSNRPSGVSNRFSGSKSGNTASLTISGLQAEDEADYYCSSYTSSSTPYVFGTGTKVTVLG
notes: human IgG1
Kd [1]: 1.71 nM | koff [1]: 0.00314 s⁻¹ | kon [1]: 1.84e+06 M⁻¹ s⁻¹ | Kd [2]: 5.63 nM | koff [2]: 0.00768 s⁻¹ | kon [2]: 1.36e+06 M⁻¹ s⁻¹

B12: anti-mutCALR antibody clone 35 (antibody, human IgG1, lambda, V domains shown)
VH: QVQLVQSGAEVKKPGATVKISCKVSGYSFTDYFIHWVQQAPGKGLAWVGLVDPEDGETIYAERFQGRVTITADTSTDTAYMELSSLRSEDTAVYYCATPGGILTDPDAFDIWGQGTMVTVSS
VL: QSALTQPASVSGSPGQSITISCTGTSSDVGGYNYVSWYQQHPGKAPKLMIYEVSNRPSGVSNRFSGSKSGNTASLTISGLQAEDEADYYCSSYTSSSTPYVFGTGTKVTVLG
notes: human IgG1
Kd [2]: 2.82 nM | koff [2]: 0.00599 s⁻¹ | kon [2]: 2.13e+06 M⁻¹ s⁻¹

B13: anti-mutCALR antibody clone 11 (antibody, human IgG1, lambda, V domains shown)
VH: EVRLVQSGAEVKKPGASVKVSCKVSGYTLTELSMQWVRQAPGKGLEWMGGFDPDDGETMYAEKFQGRLTVTEDTSTDTVYMELRSLTSEDTALYFCATSPGYDFFDYWGQGTLVTVSS
VL: QSALTQPRSVSGSPGQSVTISCTGTSSDVGGYNYVSWYQQHPGKAPKLMIYDVSKRPSGVPDRFSGSNSGNTATLTINRVEAGDEADYYCQVWDSSNDLLIFGGGTKLTVLG
notes: human IgG1
Kd [2]: 10.2 nM | koff [2]: 0.00524 s⁻¹ | kon [2]: 514000 M⁻¹ s⁻¹

B14: anti-mutCALR antibody clone 38 (antibody, human IgG1, kappa, V domains shown)
VH: EVQPVQSGAEVKKPGSSVKVSCKASGGTFSSYAISWVRQAPGQGLEWMGLVDPEDGETIYAEKFRGRVTITADTSTDTAYMELSSLRSEDTAVYYCATEESYGPWGQGTLVTVSS
VL: DIQLTQSPSSLSASVGDRVTITCQASQDISNYLNWYQQKPGKAPKLLIYDASNLETGVPSRFSGSGSGTEFTLTISSLQPEDFATYYCQQLNSYPLTFGGGTKLEIKR
notes: human IgG1
Kd [2]: 2.1 nM | koff [2]: 0.00268 s⁻¹ | kon [2]: 1.28e+06 M⁻¹ s⁻¹

B15: anti-mutCALR antibody clone 39 (antibody, human IgG1, kappa, V domains shown)
VH: EVQLVQSGAEVKKPGSSVKVSCKASGGTFSSYAISWVRQAPGQGLEWMGLVDPEDGETIYAEKFQGRVTITADTSTDTAYMELSSLRSEDTAVYYCATEESYGPWGQGTLVTVSS
VL: DIQLTQSPSSLSASVGDRVTITCQASQDISNYLDWYQQKPGKAPKLLIYDASNLETGVPSRFSGSGSGTEFTLTISSLQPEDFATYYCQQLNSYPLTFGGGTKLEIKR
notes: human IgG1
Kd [2]: 5.59 nM | koff [2]: 0.0018 s⁻¹ | kon [2]: 322000 M⁻¹ s⁻¹

B16: anti-mutCALR antibody clone 33 (antibody, human IgG1, lambda, V domains shown)
VH: QVQLVQSGAEVKKPGATVKISCKVSGYSFTDYFIHWVQQAPGKGLAWVGLVDPEDGETIYAEKFQGRVTITADTSTDTAYMELSSLRSEDTAVYYCATPGGILTDPDAFDIWGQGTMVTVSS
VL: QSALTQPRSVSGSPGQSVTISCAGTGSDVGGYNHVSWYQHHPGKAPKLMIYDVNKRPSGVPDRFSGSKSGNTASLTISGLQAEDEADYYCSSYIPSSTRWVFGGGTKLTVLG
notes: human IgG1
Kd [2]: 16.2 nM | koff [2]: 0.0126 s⁻¹ | kon [2]: 775000 M⁻¹ s⁻¹

B17: anti-mutCALR antibody clone 52 (antibody, human IgG1, kappa, V domains shown)
VH: EVQLVQSGAEVKKPGASVKVSCKVSGYTLTELSMHWVRQAPGKGLEWMGLVDPEDGETIYAEKFQGRVTITADTSTDTAYMELSSPRSEDTAVYYCATTIGDDYFDYWGQGTLVTVSS
VL: not shown
notes: human IgG1
Kd [2]: 1.76 nM

B18: anti-mutCALR antibody clone 34 (antibody, human IgG1, lambda, V domains shown)
VH: QVQLVQSGAEVKKPGATVKISCKVSGYSFTDYFIHWVQQAPGKGLAWVGLVDPEDGETIYAEKFQGRVTITADTSTDTAYMELSSLRSEDTAVYYCATPGGILTDPDAFDIWGQGTMVTVSS
VL: QSALTQPASVSGSPGQSITISCTGTSSDVGGYNYVSWYQQHPGKAPKLMIYEVSNRPSGVSNRFSGSKSGNTASLTISGLQAEDEADYYCSSYTSSSTYVFGTGTKVTVLG
notes: human IgG1
Kd [2]: 2.56 nM | koff [2]: 0.00581 s⁻¹ | kon [2]: 2.27e+06 M⁻¹ s⁻¹
